B1: TRIAD3A (protein)
chain: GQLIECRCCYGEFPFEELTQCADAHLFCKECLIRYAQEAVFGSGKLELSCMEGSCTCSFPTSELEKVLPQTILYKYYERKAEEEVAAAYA
B2: HHARI (protein)
chain: TRSSAQDMPCQICYLNYPNSYFTGLECGHKFCMQCWSEYLTTKIMEEGMGQTISCPAHGCDILVDDNTVMRLITDSKVKLKYQHLITNSFVECN

Key:
[1] = target: UBE2D1 (Homo sapiens (Human), UniProt P51668); test: ITC; UbcH7 cells RING1 fragment, UbcH5A cells whole RBR
[2] = target: UBE2L3 (Homo sapiens (Human), UniProt P68036); test: as above
UBE2L3, sequence (P68036 whole entry): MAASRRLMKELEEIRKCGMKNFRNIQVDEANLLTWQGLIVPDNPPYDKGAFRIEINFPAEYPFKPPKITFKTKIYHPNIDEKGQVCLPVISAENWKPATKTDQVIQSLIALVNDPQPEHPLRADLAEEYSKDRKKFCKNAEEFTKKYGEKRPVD

UBE2D1, sequence (P51668 whole entry, the tested form may be a part): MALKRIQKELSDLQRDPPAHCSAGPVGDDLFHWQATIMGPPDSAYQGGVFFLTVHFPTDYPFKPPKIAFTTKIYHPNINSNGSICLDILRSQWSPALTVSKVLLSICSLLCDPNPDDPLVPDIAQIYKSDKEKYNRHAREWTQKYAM

Binder | Kd [1] [µM] | Kd [2] [µM]
B1 | > 50 | 3.2
B2 | > 50 | 0.21

Source: paper PMC5758712 (2018)
